# In US20050202430A1 (Novartis, published 2005):
# B1: purified full-length recombinant mouse tenascin-W (C-terminal 6xHis-tag, secreted from HEK 293 cells) (ligand)
# chain: TPESPGCSNKEQQVTVSHTYKIDVPKSALVQVETDPQSLSDDGTSLLAPGEDGEEQNIIFRHNIRLQTPQKNCDLADSVQDLLARMKKLEEEMAELKEQCNTNRCCQGAADLSRHCSGHGTFLPETCSCHCDQGWEGADCDQPTCPGACNGHGRCVDGQCVCDAPYVGVDCAYAACPQDCSGHGVCVQGVCQCHEDFTAEDCSEQRCPGDCSGNGFCDTGECYCEMGFTGPDCSQVVAPQGLQLLKSTENSLLVSWEPSSEVDYYLLSYYPLGKEQATKQVRVPKEQHTYDITGLLPGTKYIVTLRNVKKDISSSPQHLLATTDLAVLGTAWVNEETETSLDVEWENPLTEVDYYKLRYGPLTGQEVTEVTVPKSRDPKSRYDITGLQPGTEYKITVVPIRGDLEGKPILLNGRTEIDGPTNVVTNQVTEDTASVSWDPVRADIDKYVVRYIAPDGETKEKAVPKDQSSTVLTGLKPGEAYKVFVWAERGNQGSKKADTKALTEIDSPENLVTDRVTENSLSVSWDPVEADIDRYVVSYTSVDGETKQVPVKKDQRSTVLTGLSPGVEYKVYVWAEKGDRESKKANTKAPTDIDSPKNLVTDQVTENTLSVSWDPVQANIDRYMVSYTSADGETREVPVPKEKSSTVLTGLRPGVEYKVHVWAQKGTQESRKANTKAPTDIDGPKNLVTDQVTETTLSVSWDPVEADIDRYMVRYTSPDGETKEVPVSKDKSSTVLRGLRPGVEYKVDVWAQKGAQDSRKANTKAPTDIDSPKNLVTEQVAESTATVSWDPVEADIDRYVVRYTSADGETREIPVRKEKSSTVLTGLRPGVEYTVQVWAQKGARESKKAKTKAPTEIDSPKNLVTNRVTENTATISWDPVRANIDRYMVRYTSADGETKEIPVSKDQSNTILTGLKPGMEYTIHVWAQKGARESKKADTKALTEIDPPRNLRPFGVTHSGGVLTWLPPSAQIDGYILTYQFPNGTVKGVELPRGQQRFELQDLEQGVTYPVSLVAFKGNQRSRTVSTTLSTVDARFPHPSDCSQVQQNTNAASGLYTIYLNGDASRPMQVYCDMDTDGGGWIVFQRRNTGQLDFFKRWRSYVEGFGDPMKEFWLGLDKLHNLTTGTTTRYEVRADLQTFNESAYAVYDFFQVASSKERYKLSVGKYRGTAGDALTYHNGWKFTTFDRDSDIALSNCALTHHGGWWYKNCHLANPNGKYGETKHSEGVNWEPWKGHEFSIPYVELKIRPFGYSRDRFSGRKKRSIGKARMFHHHHHH
# notes: also called full length mouse tenascin-W protein; purified tenascin-W
# Biological target: T1, alpha9 integrin on transfected SW480 colon carcinoma cells (UniProt Q13797 30-1035; P05556 21-798)
# T1 construct: whole, on cells; also called α9 integrin; alpha9 beta1 integrin
# Experiment: adhesion of transfected SW480 cells to wells coated with tenascin-W
# Text: IDG tripeptide motifs have been reported to be the recognition sequence for alpha9 beta1 integrin (Yokosaki et al., 1998). Since mouse tenascin-W contains three IDG motifs we investigated whether α9 integrin could be the receptor for tenascin-W. We plated SW480 colon carcinoma cells transfected either with an empty vector or with the vector containing the cDNA for α9 integrin (Yokosaki et al. J Biol. Chem. 1996 Sep. 27;271(39):24144-50) on tenascin-W coated wells.
# T1 sequence (Q13797 30-1035, chain 1 of 2): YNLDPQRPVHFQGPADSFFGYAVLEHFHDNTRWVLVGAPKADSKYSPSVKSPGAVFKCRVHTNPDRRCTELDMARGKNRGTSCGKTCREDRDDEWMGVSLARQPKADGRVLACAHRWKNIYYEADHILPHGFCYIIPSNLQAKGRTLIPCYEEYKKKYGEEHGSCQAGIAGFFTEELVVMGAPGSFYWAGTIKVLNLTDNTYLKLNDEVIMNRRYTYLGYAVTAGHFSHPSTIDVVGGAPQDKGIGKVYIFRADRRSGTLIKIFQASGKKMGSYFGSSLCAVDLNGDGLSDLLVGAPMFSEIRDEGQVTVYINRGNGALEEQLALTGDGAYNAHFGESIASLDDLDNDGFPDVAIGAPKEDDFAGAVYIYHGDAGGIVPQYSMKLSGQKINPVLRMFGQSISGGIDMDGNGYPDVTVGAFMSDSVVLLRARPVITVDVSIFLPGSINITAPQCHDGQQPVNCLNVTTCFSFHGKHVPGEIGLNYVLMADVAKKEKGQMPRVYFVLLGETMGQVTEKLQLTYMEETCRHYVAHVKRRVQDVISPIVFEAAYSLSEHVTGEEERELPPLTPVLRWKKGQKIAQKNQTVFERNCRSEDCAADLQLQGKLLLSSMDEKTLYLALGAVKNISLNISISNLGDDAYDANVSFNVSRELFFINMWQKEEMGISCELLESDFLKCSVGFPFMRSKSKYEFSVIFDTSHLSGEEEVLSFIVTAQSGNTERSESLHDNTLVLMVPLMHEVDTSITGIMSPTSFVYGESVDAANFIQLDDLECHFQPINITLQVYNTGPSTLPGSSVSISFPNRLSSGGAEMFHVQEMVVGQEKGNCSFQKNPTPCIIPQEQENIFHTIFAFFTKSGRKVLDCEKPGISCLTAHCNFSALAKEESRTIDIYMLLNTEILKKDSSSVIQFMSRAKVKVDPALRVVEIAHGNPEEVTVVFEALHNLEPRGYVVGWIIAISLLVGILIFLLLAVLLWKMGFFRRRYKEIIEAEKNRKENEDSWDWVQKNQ
# T1 sequence (P05556 21-798, chain 2 of 2): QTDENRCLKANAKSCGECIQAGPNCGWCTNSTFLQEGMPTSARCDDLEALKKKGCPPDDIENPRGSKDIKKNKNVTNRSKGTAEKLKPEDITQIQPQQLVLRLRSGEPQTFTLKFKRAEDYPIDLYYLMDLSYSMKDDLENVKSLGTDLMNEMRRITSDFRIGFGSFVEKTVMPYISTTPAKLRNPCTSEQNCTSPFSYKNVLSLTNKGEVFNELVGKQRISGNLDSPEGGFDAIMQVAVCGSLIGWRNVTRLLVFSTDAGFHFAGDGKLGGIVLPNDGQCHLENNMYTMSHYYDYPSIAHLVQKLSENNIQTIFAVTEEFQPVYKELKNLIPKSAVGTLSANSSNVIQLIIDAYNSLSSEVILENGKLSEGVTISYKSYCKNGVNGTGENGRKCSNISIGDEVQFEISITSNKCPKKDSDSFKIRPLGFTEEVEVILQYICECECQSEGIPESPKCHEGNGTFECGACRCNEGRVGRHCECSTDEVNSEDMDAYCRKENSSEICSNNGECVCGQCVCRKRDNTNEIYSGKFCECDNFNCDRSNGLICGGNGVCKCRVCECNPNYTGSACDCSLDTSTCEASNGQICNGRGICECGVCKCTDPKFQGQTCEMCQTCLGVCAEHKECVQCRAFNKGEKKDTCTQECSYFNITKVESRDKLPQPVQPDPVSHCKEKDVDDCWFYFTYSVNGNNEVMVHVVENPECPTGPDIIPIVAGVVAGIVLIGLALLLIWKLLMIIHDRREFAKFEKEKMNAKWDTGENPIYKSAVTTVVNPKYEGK
binder,measurement,value
B1,binding result,no binding
